Laboratory results: patent US20240092898A1
Values belong to the binder of their own block, whether it stands above or below them.

Key:
CD33 (human) = CD33 (human) (UniProt P20138); test: SPR
CD7 on cells (human) [1] = molecular target: CD7 on cells (human) (UniProt P09564); test: flow cytometry on cells; cell line and unit not stated
CD7 on cells (human) [2] = molecular target: CD7 on cells (human) (UniProt P09564); test: flow cytometry on cells; ratio to 7-PP-1 WT

Chain of CD7 on cells (human) (P09564 26-240): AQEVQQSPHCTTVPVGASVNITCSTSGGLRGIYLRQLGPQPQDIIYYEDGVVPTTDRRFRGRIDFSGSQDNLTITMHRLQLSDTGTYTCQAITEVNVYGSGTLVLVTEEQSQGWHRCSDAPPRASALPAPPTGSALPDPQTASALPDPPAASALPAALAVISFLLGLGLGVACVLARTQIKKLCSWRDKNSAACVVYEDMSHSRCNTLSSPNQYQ
Chain of CD33 (human) (P20138 18-259 limits assumed): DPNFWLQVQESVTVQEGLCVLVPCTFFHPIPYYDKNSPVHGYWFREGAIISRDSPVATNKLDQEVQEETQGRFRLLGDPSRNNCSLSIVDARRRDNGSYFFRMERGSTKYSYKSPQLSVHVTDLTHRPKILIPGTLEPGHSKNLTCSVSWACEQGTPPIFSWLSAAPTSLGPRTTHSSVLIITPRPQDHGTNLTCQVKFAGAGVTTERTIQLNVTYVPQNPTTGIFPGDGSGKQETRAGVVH

Kd (CD33 (human)): 1.36 nM
B1: CD33-PP-1-WT (Fab, from another filing, V domains shown)
VH: EVQLVQSGAEVKKPGSSVKVSCKASGYTITDSNIHWVRQAPGQSLEWIGYIYPYNGGTDYNQKFKNRATLTVDNPTNTAYMELSSLRSEDTAFYYCVNGNPWLAYWGQGTLVTVSS
VL: DIQLTQSPSTLSASVGDRVTIICRASESLDNYGIRFLTWFQQKPGKAPKLLMYAASNQGSGVPSRFSGSGSGTEFTLTISSLQPDDFATYYCQQTKEVPWSFGQGTKLEIK

FACS binding (CD7 on cells (human) [1]): 267 | FACS fold reduction compared to PP WT (CD7 on cells (human) [2]): 502 fold
B2: CD7-PP-7 (Fab, V domains shown)
VH: QVQLQESGAELVKPGASVKLSCKASGYTFTSYWMHWVKQRPGQGLEWIGKINPSNGGTNYNEKFKSKATLTVDKSSSTAYMQLSSLTSEDSAVYYCARGGVYYDLYYAALDYWGQGTTVTVSS
VL: DIELTQSPATLSVTPGDSVSLSCRASQSISNNLHWYQQKSHESPRLLIKSASQSISGIPSRFSGSGSGTDFTLSINSVETEDFGMYFCQQSNSWPYTFGGGTKLEIKR
